The target of test [1] is T1, hDASPO (hDASPO_341), human D-aspartate oxidase (Homo sapiens, UniProt Q99489).
T1 construct: gene DDO; full-length canonical isoform, 341 residues; His-tagged (pET11-His-hDASPO), E. coli BL21(DE3) LOBSTR, HiTrap chelating
T1 sequence (Q99489 1-341): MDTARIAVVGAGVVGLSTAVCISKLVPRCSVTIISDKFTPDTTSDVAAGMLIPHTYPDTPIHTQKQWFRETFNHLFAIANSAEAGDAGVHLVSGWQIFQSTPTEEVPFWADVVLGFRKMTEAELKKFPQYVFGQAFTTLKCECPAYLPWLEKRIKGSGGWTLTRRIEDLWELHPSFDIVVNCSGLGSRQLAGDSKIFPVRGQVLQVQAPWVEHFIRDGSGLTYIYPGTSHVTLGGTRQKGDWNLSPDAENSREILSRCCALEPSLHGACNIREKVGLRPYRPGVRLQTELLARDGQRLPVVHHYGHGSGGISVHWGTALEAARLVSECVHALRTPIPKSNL
The test can be described thus: quenching of apoprotein tryptophan fluorescence (~[…] nm), titration. In kind it is binding.

The target in test [2] is T2, hDASPO-RED (recombinant hDASPO labelled with the RED-NHS dye) (human, UniProt Q99489 1-341, RED-NHS fluorescent dye on primary amines (lysine residues), degree of labeling ~0.7).
T2 construct: human D-aspartate oxidase, canonical isoform 1 (hDASPO_341, 341 amino acids), UniProt Q99489; encoded by the pET11-His-hDASPO plasmid; Same protein as m1, with the dye; also called labeled hDASPO; source: E. coli BL21(DE3) LOBSTR, purified (HiTrap chelating column), labelled with the RED-NHS labeling kit second generation
T2 sequence (looked up): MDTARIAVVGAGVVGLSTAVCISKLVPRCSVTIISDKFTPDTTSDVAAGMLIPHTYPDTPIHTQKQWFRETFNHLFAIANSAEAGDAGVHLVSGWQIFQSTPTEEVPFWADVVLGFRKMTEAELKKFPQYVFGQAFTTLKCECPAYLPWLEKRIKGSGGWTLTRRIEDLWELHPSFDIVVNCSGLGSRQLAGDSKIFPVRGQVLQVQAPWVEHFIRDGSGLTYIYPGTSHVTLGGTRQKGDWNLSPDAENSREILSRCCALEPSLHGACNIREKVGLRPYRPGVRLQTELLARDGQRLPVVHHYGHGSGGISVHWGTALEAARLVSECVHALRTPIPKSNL
The test can be described thus: MST; Monolith NT.115; 10 nM hDASPO-RED with 3 nM to 100 μM label-free pLG72 variant. To be noted: both partners purified.

As for `Cc1cc2nc3c(=O)[nH]c(=O)nc-3n(C[C@H](O)[C@H](O)[C@H](O)COP(=O)(O)OP(=O)(O)OC[C@H]3O[C@@H](n4cnc5c(N)ncnc54)[C@H](O)[C@@H]3O)c2cc1C` [FAD], the Kd – broadly, the constant that tells how readily two partners part at equilibrium – in test [1] amounted to 0.016 µM.

B1: pLG72 R30 variant (wild type), recombinant (natural protein, UniProt P59103 1-153, looked up)
chain: MLEKLMGADSLQLFRSRYTLGKIYFIGFQRSILLSKSENSLNSIAKETEEGRETVTRKEGWKRRHEDGYLEMAQRHLQRSLCPWVSYLPQPYAELEEVSSHVGKVFMARNYEFLAYEASKDRRQPLERMWTCNYNQQKDQSCNHKEITSTKAE
notes: primate-specific protein pLG72 (18 kDa), wild type with Arg at position 30; kept in 0.06% N-lauroyl sarcosine; also called R30 pLG72; wild-type (R30) pLG72; source: E. coli BL21-Codon plus (DE3)-RIL, recovered from insoluble inclusion bodies, purified
For the molecule B1, the Kd in test [2] is 6.8 ± 0.6 µM.

B2: pLG72 R30K variant (Arg30Lys), recombinant (natural protein, UniProt P59103 1-153, looked up)
chain: MLEKLMGADSLQLFRSRYTLGKIYFIGFQKSILLSKSENSLNSIAKETEEGRETVTRKEGWKRRHEDGYLEMAQRHLQRSLCPWVSYLPQPYAELEEVSSHVGKVFMARNYEFLAYEASKDRRQPLERMWTCNYNQQKDQSCNHKEITSTKAE
notes: primate-specific protein pLG72 (18 kDa), Arg30Lys variant related to schizophrenia susceptibility; kept in 0.06% N-lauroyl sarcosine; also called R30K pLG72; source: E. coli BL21-Codon plus (DE3)-RIL, recovered from insoluble inclusion bodies, purified
Turning to B2, in test [2], the Kd came to 3.8 ± 0.4 µM.

These data come from publication PMC10588558, “On the regulation of human D‐aspartate oxidase” (Protein Science : A Publication of the Protein Society, 2023).
